In the supplement of paper PMC9170038:

System: K4 kissing-loop RNA reporter
Assay: apparent KD of K4 kissing-loop reporter; higher = weaker reporter binding
Settings: Eterna round: R107
Procedure: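 RNA-MaP round R107: designed RNA switches with theophylline, tryptophan, arginine or FMN aptamers are transcribed on-chip within common flanks. They are titrated with a labelled K4 kissing-loop RNA reporter in RNA-MaP buffer (100 mM Tris pH 7.5, 80 mM KCl, 4 mM MgCl2), without ligand or with the indicated ligand. Median apparent KD per design.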

[1] = input ligand: theophylline 20 uM
[2] = input ligand: tryptophan 2.4 mM
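Further: bound reporter read as fluorescence of individual clusters on recovered sequencing chips by microscopy, with normalized cluster intensities fitted with a binding model.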

| Sequence | apparent KD of K4 kissing-loop reporter (input ligand: FMN 200 uM) | apparent KD of K4 kissing-loop reporter (input ligand: arginine 13.2 mM) | apparent KD of K4 kissing-loop reporter (input ligand: none) | apparent KD of K4 kissing-loop reporter [1] | apparent KD of K4 kissing-loop reporter [2] |
| --- | --- | --- | --- | --- | --- |
| CACUUACGUAGUGAUGUUACGAUCUCUGAUACCAGACAACUCUAAGUCCCUUGGCAGCAGUCAUUUUGCUUAGUAUUUACUCAAA [JR_ExcTheophyA_Sub016] | 679 nM | 650 nM | 791 nM | 605 nM | 512 nM |
| AAGUGAUGUUGUAGUGAUGUUGUGAUGUUGCAGGAUAUAUAGUGAUGUAGAAGGGUAAGGACUGUUUUUUUUUUUGAGUGAUGUU [ookooyzrmullin] | 94.2 nM | 41.4 nM | 70.5 nM | 56.8 nM | 73.3 nM |
| CCACCUCCAGAAGGAUAUAGUGUAUCAGAUUCACUCGAGUGCCUUAAACUAAGGAGUGAUGUUCCGCUAGAAGGUCUCGUAGGCA [theeternabot_exclusion_KL_FMN_B_45] | 191 nM | 145 nM | 149 nM | 138 nM | 133 nM |
| CACUUACGUAGUGAUGUUACGAUCUCUGAUACCAGACAACUCUAAGUCCCUUGGCAGCAGUCAUUUUGCUUUUAAUUUACUCAAA [JR_ExcTheophyA_Sub014] | 552 nM | 572 nM | 682 nM | 578 nM | 425 nM |
| UCAUGUGCCAGUGAUGUUGGCGUACGUGAUACCAGACGAAUAAAAGUCCCUUGGCAGCACAAAUAAGCCAAGAUAGAUGAAUGAU [Exclusion Theophylline A GF 1] | 130 nM | 125 nM | 132 nM | 137 nM | 116 nM |
| CGAGUGAUGUUCGUUUUUUACUCUUUUUGACAGGAUAUGCGGAAACGCAGAAGGGUCACCUUUGAGUUAAAAGGAGUUAUUUUUU [Ex FMN A 19] | 345 nM | 269 nM | 318 nM | 305 nM | 317 nM |
| AAGGUGAUCCUCGAUACCAGCUCAAAAUGAGUGAUGUUCAUGAAAGCCUGGAAACAGGCGAGCCCUUGGCAGCGAGUUACAUCAA [KL-SSTheoB8] | 204 nM | 162 nM | 162 nM | 134 nM | 154 nM |
| AGGUCCGAGCCCGGAAGGGCUCGGACCUGUUAGGAUAUGACGUGAUUCAGAAGGGAUGGGUGGAGUGAUGUUCCACCCGAGAGGG [#2 Same State - FMN A Attempt #20 (HarryS)] | 105 nM | 89.3 nM | 91.2 nM | 102 nM | 109 nM |
| GGCCACGGGCGAGGAUAUGGGCAUGAUUCAUCCUGGAGUGAUGUUCCAGGUCCUACGUUUCUAGCACCAGAAGGCGUUUGUUGCU [Enistein] | 131 nM | 196 nM | 215 nM | 180 nM | 165 nM |
| AUUAUAUAGGCGGCCGCCACUAGUGAUGUUAGUGACUAUAUGAAAACAUAUAGAAUAAAAUAAUAUAGGACCGGGCCAUAAUAUU [AstrosExTryB#4] | 498 nM | 392 nM | 423 nM | 425 nM | 471 nM |
| UUCAUCGUGGUUCACGGGUGGUAUGAAACGCGAGGACCGGUACGGCCGCCACUCGGUUCCGCUUGUUGAGUGAUGUUCAAUAUUU | 239 nM | 333 nM | 290 nM | 323 nM | 257 nM |
| AGUGCACUGUCAGGAUAUAUACAGUGAUGUUGUGUAUGUCAGCAAGUCAAAGACUUGCUAUUCUGUGUAGAAGGGACUGUGUACA [Omei KL FMN B Exc A v1] | 607 nM | 203 nM | 230 nM | 207 nM | 221 nM |
| AAUUACCUAGUGAUGUUGGGAAUAAUAUAACGAGGACCGGUACGGCCGCCACUCGAGGUCCUAAUUAAGAACGCGAAAGCGAAGA [Tryptophan A Exclusion; Euphoria Solution] | 94.4 nM | 60.5 nM | 93.1 nM | 66.8 nM | 189 nM |
| UGGAGUUGACGAAAAGUCAACUCCCGAGAAGGAGCGGACGAAAGUCCAGGUAGGUCGCUCGCUACCAGUGAUGUUGGUACUCAAA | 127 nM | 182 nM | 156 nM | 192 nM | 135 nM |
| AAAACUAUCAGAAGGAGCGUGGAAUAUUCAUCUAUAUUUAAUACGAGUGAUGUUCGUAAUUCACAGGUAGGUCGCUGAUCAAUAA [JR_ExcArginiB_Sub007] | 214 nM | 251 nM | 233 nM | 273 nM | 171 nM |
| AGACUUCACCGAAGGAGCGACGUGGCCUAGUGAUGUUAGGUACGAGAGAAAUCUCGUAUACGUCAGGUAGGUCGCGGUGAAGUCA [Omei KL Arginine B SS C v8] | 868 nM | 643 nM | 997 nM | 721 nM | 830 nM |
| GCCGUAGUUGGAAGGAGCGUGAAUGGCCUCUAUCCAAAGUGAUGUUUUGUUGAAGACUGUUCACAGGUAGGUCGCCAACUACGGC [#09 K4 Arginine B Same State] | 145 nM | 130 nM | 133 nM | 134 nM | 132 nM |
| GUAUCGCUAGGAGGAUAUUUCAAAUAACCAAUAAAUGGUUAUACGGAGUGAUGUUCCGAUUUACGGAAAGAAGGCCUAGUGAUAC [FMN B 5] | 137 nM | 276 nM | 302 nM | 319 nM | 290 nM |
| AAAUUUAAUAUAUUUAAUUAAUUAAGUGAUACCAGACAUUAAUAAGUCCCUUGGCAGCGCAAUGCAGUGAUGUUGCUUAUAAUAA [#18 K4 Theophylline A Same State] | 56.1 nM | 82.9 nM | 50.1 nM | 136 nM | 48 nM |
| UAUGUACACGGGUAGUUGUACAUCGAGGAAGGAGCGUGCGCAGGCACAGGUAGGUCGCCUCAGCGCACGAGUGAUGUUCGUGGGC [Xexegeus] | 276 nM | 170 nM | 257 nM | 216 nM | 247 nM |
| CGUUCUUCUGUCGAUACCAGCUUCAGUUGGCGGCCAGUGAUGUUGGUAUCGCCGAUGCCAAGCCCUUGGCAGCGACAUGAGACCC [Onrire] | 171 nM | 180 nM | 182 nM | 130 nM | 168 nM |

| Sequence | apparent KD of K4 kissing-loop reporter (input ligand: FMN 200 uM) | apparent KD of K4 kissing-loop reporter (input ligand: arginine 13.2 mM) | apparent KD of K4 kissing-loop reporter (input ligand: none) | apparent KD of K4 kissing-loop reporter [1] | apparent KD of K4 kissing-loop reporter [2] |
| --- | --- | --- | --- | --- | --- |
| AAUAACUUGCAGUGAUGUUGCAAGAAAGCUCAGGAUAUCAGGAAACUGAGAAGGGAGCAUCCUGAGCAAACAUCACAACUUAGGA [[K1]-[K2]-[F1]-[F2]-[F]'-[K]'-[F]''_Design2] | 368 nM | 295 nM | 406 nM | 448 nM | 361 nM |
| CAAAACGAGUGAUGUUCGGACAACAACGUUAAGGAUAUACUUCUCUGUAGAAGGUAACAGUAUUUAUAUUUCAUCAACGAAAAUG [theeternabot_exclusion_KL_FMN_A_12] | 213 nM | 183 nM | 280 nM | 248 nM | 181 nM |
| AGGUCACUACUACAGUGAUGUUGUGGAGAGCAGGAUAUGCAGAAAUGCAGAAGGGCUCGCUCUCAGUGACCGAAUGAAACAUUCA [Omei KL FMN A SS A v8] | 663 nM | 724 nM | 712 nM | 566 nM | 838 nM |
| ACUAGAAAACCAGUGAUGUUGGCCUGGGAUACCAGCUUCUAUUAUAGCCCUUGGCAGCCCUUUAGUACAAGUGACCUUGCGACCG [theeternabot_sameState_KL_Theo_A_9] | 299 nM | 217 nM | 452 nM | 217 nM | 277 nM |
| AAGAGGUAGGCGGCCGCCACUUGUUGUGAACACAUACGAGCCAGUGAUGUUGGUAUUGUGUGCGGAAGGACCGGGCCUACCUGAA [Exclusion - Tryptophan B (Freestyle 21)] | 146 nM | 173 nM | 136 nM | 46 nM | 140 nM |
| GGAGUUACCUGGGAUACCAGUCGGAGUCUCAGAGCUCGGAGUGAUGUUCUGGGAUGUUUCGGCCCUUGGCAGCUCUGGGACUCCA [#2 Exclusion - Theophylline B Attempt #16 (HarryS)] | 924 nM | 627 nM | 863 nM | 843 nM | 707 nM |
| GCCGUAGAUCGAAGGAGCGUGUCCAAACCUCAUUCAUGUACACACGAGUGAUGUUCGUGUACACAGGUAGGUCGCGAUCUACGGC [#04 K4 Arginine B Exclusion] | 344 nM | 281 nM | 331 nM | 294 nM | 310 nM |
| AAAAGCCAGCAAGGAUAUACGCGCGAAGCAUCCAUGGUGCCAGUUCCAGUGAUGUUGGACCACAUCGUAGAAGGUGCGCGGCUCA [theeternabot_sameState_KL_FMN_B_33] | 440 nM | 223 nM | 266 nM | 224 nM | 274 nM |
| UUUAUUAAGACGGCCGCCACUGAAUUAGAGUGAUGUUCUAAAAUUACUAAAUUAAAUUUAUUCAACAGGACCGGGUCAAUUAUUA [JR_SSTryptoB_Sub010] | 399 nM | 405 nM | 461 nM | 432 nM | 513 nM |
| UACUUUAAUUUAUAACUAUCUUUAUUUUGUCAGGAUAUCGUAUUGUCGAGAAGGGACUCUCUCAAGUGAUGUUUGAGAAAUCGUU [JR_SSFMNA_Sub024] | 84.8 nM | 125 nM | 115 nM | 133 nM | 87.9 nM |
| AGGCACGAGCAAGGAUAUCGAGUAGAGUGAUGUUCUGCCUGGGUUGGCUCGAAAGAGCCUUCUCAGCGAGAAGGUGCUCGUGCCU [#2 Same State - FMN A Attempt #21 (HarryS)] | 248 nM | 604 nM | 982 nM | 638 nM | 751 nM |
| UGUGUUGUUUUGAUGUUUGGUGUUUGUUGGCAGGAUAUCGUAGAGGCGAGAAGGGCUUUGUUGCGGUAUGAGUGAUGUUUGUAGG [szzrmullin] | 349 nM | 174 nM | 295 nM | 244 nM | 255 nM |
| AGAUAGGGCUGAAGGAGCGUCGGAGAAGAGAAGAAGGAAUCCAGUGAUGUUGGAUAAAUCCGACAGGUAGGUCGCAGUUUUAUGA [hbob_SS_Arginine_B_2t138] | 108 nM | 126 nM | 99 nM | 109 nM | 115 nM |
| AAAUACAUUUUAUUAUAUAACUUUUCAGAAGGAGCGUGGAAGUUCACAGGUAGGUCGCUGAAUAUUGGACUAGUGAUGUUAGUUA [JR_Nu_SSArginiA_Sub021] | 222 nM | 217 nM | 253 nM | 225 nM | 179 nM |
| UAUGUCAUUCUCGACGGAGUGAUGUUCCGACGAGGACCGGUACGGCCGCCACUCGGCAGAAUUGAGUCUGUGAUCCUAGAUCAAU [theeternabot_exclusion_KL_Trp_A_44] | 120 nM | 99.3 nM | 116 nM | 103 nM | 200 nM |
| AUGUCGUUAUAGUGAGUGAUGUUCACUGUGCGAGGACCGGUACGGCCGCCACUCGAGAGUGGUGGACACUGAGUCACUCUGACAC [Tryp A Ex t2] | 124 nM | 123 nM | 130 nM | 111 nM | 283 nM |
| UUUGGAAGCGGUGUUGAUUAGGGAGCGGAAGGAGCGCCGAUUAUGGCAGGUAGGUCGCCGGAAUGUAGUGAUGUUGCAUAGAGGG [ExArgA.W] | 209 nM | 234 nM | 202 nM | 263 nM | 83.9 nM |
| CGUUGUGAUGCUUGUGCUCAUACCGGAGAUACCAGUACCAUCACUUACCCUUGGCAGCUCAGUAAAGACAAGUGAUGUUUGUCAC [theeternabot_sameState_KL_Theo_A_38] | 684 nM | 528 nM | 805 nM | 560 nM | 502 nM |
| UAUAGCGUCAGAAGGAGCGUGAGUAUAACAUGGCUGGAGUGAUGUUCCAGGAGUUAAUACUCACAGGUAGGUCGCUGACUCCUGG [Arg B SS t2] | 173 nM | 125 nM | 92.8 nM | 150 nM | 174 nM |
| AUAUCGGUUGAGAGUGAUGUUCCUUGUGUUCGAGGACCGGUACGGCCGCCACUCGGGUAGAAAAUAAAAGAUGUGUUUGAUUUUU [BDazzled - #14 SS Tryptophan A] | 243 nM | 91.5 nM | 203 nM | 402 nM | 221 nM |
| CUUAAGACAUGAGUGAUGUUCAUGUCCGAAGGAGCGUGCGAAAGCACAGGUAGGUCGCGGACGUGAGUGAUGUUCAUGUAAGCGA [KL-XArg-A11 #analogue] | 159 nM | 125 nM | 156 nM | 154 nM | 140 nM |
